Target: cynomolgus monkey FGF19 (cynomolgus monkey)
Assay: SPR

Chain of cynomolgus monkey FGF19 (cynomolgus monkey) (chain, as listed by the source): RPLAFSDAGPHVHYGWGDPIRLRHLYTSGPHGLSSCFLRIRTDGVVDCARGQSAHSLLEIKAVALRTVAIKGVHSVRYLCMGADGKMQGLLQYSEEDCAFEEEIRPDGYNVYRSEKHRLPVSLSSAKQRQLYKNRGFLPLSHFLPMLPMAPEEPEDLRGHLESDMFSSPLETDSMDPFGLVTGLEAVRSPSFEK

Kd: 1.63 nM
B1: G1A8 (anti-FGF19 human IgG1 antibody, affinity-improved from 31A3) (antibody, V domains shown)
VH: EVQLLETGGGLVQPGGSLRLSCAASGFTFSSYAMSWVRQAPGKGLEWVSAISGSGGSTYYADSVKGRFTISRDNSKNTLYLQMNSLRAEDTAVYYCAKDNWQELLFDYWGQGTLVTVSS
VL: QAGLTQPASVSGSPGQSITISCTGTSSDVGGYNYVSWYQQHPGKAPKLMIYDVSNRPSGVSDRFSGSKSGNTASLTISGLQTEDEADYYCSSWTRSSGLVFGGGTQLTVLG
